Data reported in paper PMC3229523, “Identification of Lactoferricin B Intracellular Targets Using an Escherichia coli Proteome Chip” (PLoS ONE, 2011).
Ends that are not written are not given here. * marks the point of attachment. Biotin = O=C1N[C@H]2[C@H](CS[C@H]2CCCCC(=O)*)N1

What was measured:
Test in all cases: peptide or protein array; E. coli proteome chip: purified His-tagged proteins printed in duplicate on Fullmoon slides, blocked with 1% BSA; 10 nM N-terminal biotinylated LfcinB with 1% BSA, room temperature, 1 h; detected with DyLight 649-labeled streptavidin, ratio to DyLight 549-labeled anti-His antibody; ProCAT normalisation, local cut-off; triplicate chips
Details in all cases: both partners purified
CreB = molecular target: T1, CreB (E. coli K-12, UniProt P08368 1-229)
T1 construct: CreB, E. coli K-12
T1 sequence (looked up): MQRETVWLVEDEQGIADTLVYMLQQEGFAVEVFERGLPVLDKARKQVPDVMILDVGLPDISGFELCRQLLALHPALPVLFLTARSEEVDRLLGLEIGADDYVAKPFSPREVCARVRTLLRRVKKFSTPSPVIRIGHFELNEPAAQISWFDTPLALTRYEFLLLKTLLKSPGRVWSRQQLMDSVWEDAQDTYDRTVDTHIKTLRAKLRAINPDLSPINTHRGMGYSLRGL

PurC = molecular target: T2, PurC (E. coli K-12, UniProt P0A7D7 1-237)
T2 construct: PurC, E. coli K-12
T2 sequence (looked up): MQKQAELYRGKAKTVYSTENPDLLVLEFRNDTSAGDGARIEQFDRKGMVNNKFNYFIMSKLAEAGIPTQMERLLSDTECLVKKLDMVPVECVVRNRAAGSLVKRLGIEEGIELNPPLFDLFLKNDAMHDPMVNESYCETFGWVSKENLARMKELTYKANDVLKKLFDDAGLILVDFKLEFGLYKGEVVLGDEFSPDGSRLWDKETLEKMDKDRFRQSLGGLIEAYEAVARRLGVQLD

YibN = molecular target: T3, YibN (E. coli K-12, UniProt P0AG27 1-143)
T3 construct: YibN, E. coli K-12
T3 sequence (looked up): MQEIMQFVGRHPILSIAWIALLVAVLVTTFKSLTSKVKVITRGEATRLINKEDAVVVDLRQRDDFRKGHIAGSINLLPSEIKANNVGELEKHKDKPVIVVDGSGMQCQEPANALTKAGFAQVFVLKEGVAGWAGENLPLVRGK

YciW = molecular target: T4, YciW (E. coli K-12, UniProt P76035 1-375)
T4 construct: YciW, E. coli K-12
T4 sequence (looked up): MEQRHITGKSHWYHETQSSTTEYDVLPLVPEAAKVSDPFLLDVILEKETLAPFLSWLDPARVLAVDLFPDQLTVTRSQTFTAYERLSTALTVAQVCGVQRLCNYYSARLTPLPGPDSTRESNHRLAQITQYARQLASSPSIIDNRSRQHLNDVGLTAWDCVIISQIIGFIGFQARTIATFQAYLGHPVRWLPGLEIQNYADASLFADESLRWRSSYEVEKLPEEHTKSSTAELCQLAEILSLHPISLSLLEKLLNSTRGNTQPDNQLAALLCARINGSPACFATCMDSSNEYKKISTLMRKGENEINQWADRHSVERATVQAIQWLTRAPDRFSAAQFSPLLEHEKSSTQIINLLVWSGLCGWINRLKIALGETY

MdoG = molecular target: T5, MdoG (E. coli K-12, UniProt P33136 23-511)
T5 construct: MdoG, E. coli K-12
T5 sequence (looked up): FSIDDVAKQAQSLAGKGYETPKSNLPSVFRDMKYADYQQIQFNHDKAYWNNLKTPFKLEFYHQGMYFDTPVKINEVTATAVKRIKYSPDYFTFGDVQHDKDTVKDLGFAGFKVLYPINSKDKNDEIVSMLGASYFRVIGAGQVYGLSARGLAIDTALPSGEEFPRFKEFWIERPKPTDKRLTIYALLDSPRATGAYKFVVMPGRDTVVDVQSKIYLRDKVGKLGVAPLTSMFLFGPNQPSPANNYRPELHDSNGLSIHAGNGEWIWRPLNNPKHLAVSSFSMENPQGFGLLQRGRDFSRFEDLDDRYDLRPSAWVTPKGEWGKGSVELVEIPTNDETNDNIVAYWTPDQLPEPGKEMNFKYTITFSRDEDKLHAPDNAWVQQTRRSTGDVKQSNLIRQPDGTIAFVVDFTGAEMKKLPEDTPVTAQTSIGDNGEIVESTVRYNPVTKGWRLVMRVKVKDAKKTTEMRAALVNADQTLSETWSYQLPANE

YehS = molecular target: T6, YehS (E. coli K-12, UniProt P33355 1-156)
T6 construct: YehS, E. coli K-12
T6 sequence (looked up): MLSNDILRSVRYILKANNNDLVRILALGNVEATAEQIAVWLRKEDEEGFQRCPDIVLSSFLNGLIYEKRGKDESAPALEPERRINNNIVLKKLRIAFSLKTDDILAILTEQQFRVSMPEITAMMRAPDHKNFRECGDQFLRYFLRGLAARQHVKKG

Measured: binding result

B1: N-terminal biotinylated Lactoferricin B (peptide, UniProt P24627 36-60, looked up)
peptide: Biotin-FKCRRWQWRMKKLGAPSITCVRRAF
modifications: ends and bridges not checked
notes: lactoferricin B (LfcinB), cationic antimicrobial peptide of 25 amino acids; also called biotinylated LfcinB; biotin-labeled LfcinB; source: bought: Kelowna Inc
binds: all assays above
